The text below walks through data of paper doi:10.1101/2024.10.24.620088.

Several values for one entry are separate records, joined by “and”; a condition that tells them apart may be missing. Equal values may be shown once. Read-outs that look alike come from different tables or passages of the source.

Holding throughout (assay): cryo-EM structure
In experiment [1] the target is DUF4297 from Bacillus ap. HMH5848 (Bacillus ap. HMH5848).
The target is the same in experiment [2]. This is another data set of the same source.
Experiment [3] deals with HerA from Bacillus ap. HMH5848 (Bacillus ap. HMH5848).
Experiment [4] has the same target. The source holds these as a separate data set.

With “DUF4297 from Bacillus ap. HMH5848 (natural protein)”, the stoichiometry N (usually the number of molecules, sites or subunits per partner or assembly) in experiment [1] is 12 and 4 and 6; in experiment [2], 12.
With HerA from Bacillus ap. HMH5848 (enzyme), the stoichiometry N in experiment [3] and in experiment [4] was 6 throughout.
